Assay results reported in patent publication US20230184787A1 (NORDIC BIOSCIENCE A S, published 2023).

T1: elongated peptide VKLGHPDTLNQ (Homo sapiens)
T1 construct: also called N-extended elongated version
T1 peptide: VKLGHPDTLNQ

T2: truncated peptide LGHPDTLNQ (Homo sapiens)
T2 construct: also called N-truncated shortened version
T2 peptide: LGHPDTLNQ

T3: non-sense peptide YRDDLKKLLET (Homo sapiens)
T3 construct: also called NBH-225
T3 peptide: YRDDLKKLLET

T4: full-length human calprotectin (heterodimer of S100A9 and S100A8) (Homo sapiens, UniProt P06702 1-114; P05109 1-93)
T4 construct: also called intact full-length human calprotectin; purified calprotectin
T4 sequence (looked up) 1: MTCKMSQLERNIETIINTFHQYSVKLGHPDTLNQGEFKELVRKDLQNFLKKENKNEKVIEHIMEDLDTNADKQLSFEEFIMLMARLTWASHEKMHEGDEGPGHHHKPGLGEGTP
T4 sequence (looked up) 2: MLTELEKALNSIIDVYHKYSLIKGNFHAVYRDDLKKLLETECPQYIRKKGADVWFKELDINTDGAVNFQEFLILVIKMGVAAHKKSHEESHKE

T5: human neutrophil elastase (human, UniProt P08246 30-247, limits assumed)
T5 construct: also called HNE
T5 sequence (looked up): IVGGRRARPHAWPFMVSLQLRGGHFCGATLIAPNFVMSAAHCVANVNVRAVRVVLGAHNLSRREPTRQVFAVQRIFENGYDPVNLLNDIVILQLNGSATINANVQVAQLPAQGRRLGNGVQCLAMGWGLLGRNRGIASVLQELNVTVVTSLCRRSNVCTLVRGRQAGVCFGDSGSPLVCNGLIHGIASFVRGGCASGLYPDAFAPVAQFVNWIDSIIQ

B1: selection peptide KLGHPDTLNQ (peptide)
peptide: KLGHPDTLNQ
notes: also called calibrator peptide
B2: CPa9-HNE antibody (antibody, mouse IgG1, kappa, V domains shown)
VH: QVQLQQSGPELVKPGASVKMSCKASGYTFTDHVINWVRQRTGQGLEWIGEIYPGSGSTYYNEKFKGKATLTADKSSNTAYMQLSSLTSEDSAVYFCAWFAYWGQGTLVTVSA
VL: DIVMTQSPSSLSVSAGEKVTMSCKSSQSLLNSGNQKNYLAWYQQKPGQPPKLLIYGASTRESGVPDRFTGSGSGTDFTLTISSVQAEDLAVYYCLNDHSYPYTFGGGTKLEIKR
notes: also called monoclonal antibody targeting CPa9-HNE

How the values were obtained:
CPa9-HNE antibody = target: B2; assay: competitive ELISA: standard (calibrator) peptide in solution competes with …-K-Biotin on streptavidin plates for the CPa9-HNE antibody; mean of the standard curves
[1] = target: T1, elongated peptide VKLGHPDTLNQ; assay: competitive ELISA (CPa9-HNE assay), peptide specificity test, FIG. 2B
Description: (§1) No. 11940279, Hvidovre, Denmark) were coated with a biotinylated antigen ([…]-K-Biotin (SEQ ID NO: 27)) by incubation with the biotinylated antigen for 30 minutes at room temperature. Unbound biotinylated coater antigen was discarded, and the wells were washed with washing buffer (25 mM TRIZMA, 50 mM NaCl, 0.036% Bronidox L5, 0.1% Tween 20) using a standardized ELISA plate washing machine (BioTek® Instruments, Microplate washer, ELx405 Select CW, Winooski, USA). Samples were diluted in incubation buffer containing 1% bovine serum albumin (Sigma Aldrich, cat. No. a-7906, 98 purity) to maintain protein stability and for blocking. Samples and controls were added to the wells and incubated with the primary monoclonal antibody against the HNE-generated neo-epitope (CPa9-HNE), at 20° C. for 1 hour and agitated at 300 rpm. Unbound primary antibody and sample were discarded, and the wells were washed with washing buffer. Subsequently, HRP conjugated AffiniPure Rabbit anti-mouse IgG secondary antibodies (Jackson cat. No 315-035-045) was added to the wells and incubated for 1 hour at 20° C. Unbound secondary antibody was discarded by washing the wells in washing buffer. Chemiluminescence substrate (Roche Diagnostic's cat. No. 11582950001) was added to the well (100 μl/well), and the plates were incubated for 3 minutes at room temperature before reading the plates. Finally, an ELISA reader (VersaMAX; Molecular Devices, Wokingham Berkshire, UK) was used to quantify the relative light units (RLU) emitted from the plates […]. A standard curve was plotted using a 4-parametric mathematical fit model.
(§2) A monoclonal antibody (also referred to herein as the CPa9-HNE antibody) targeting CPa9-HNE (the HNE-generated N-terminus neo-epitope of NBH-222) was developed and used in an ELISA protocol as described above (also referred to hereinafter as the CPa9-HNE assay), and the specificity of this antibody when used in this immunoassay was tested against the selection peptide and the elongated peptide, truncated peptide and non-sense peptide (having the sequences set out in Table 1).

[2] = target: T2, truncated peptide LGHPDTLNQ; assay: as above
Description: as §1, §2

[3] = target: B1; assay: as above
Description: as §1, §2

[4] = target: T3, non-sense peptide YRDDLKKLLET; assay: as above
Description: as §1, §2

[5] = target: T4, full-length human calprotectin …; assay: competitive ELISA (CPa9-HNE assay) on in vitro cleavage samples and controls, FIG. 2C
Description: (§3) Samples were diluted in incubation buffer containing 1% bovine serum albumin (Sigma Aldrich, cat. No. a-7906, 98 purity) to maintain protein stability and for blocking. Samples and controls were added to the wells and incubated with the primary monoclonal antibody against the HNE-generated neo-epitope (CPa9-HNE), at 20° C. for 1 hour and agitated at 300 rpm. Unbound primary antibody and sample were discarded, and the wells were washed with washing buffer. Subsequently, HRP conjugated AffiniPure Rabbit anti-mouse IgG secondary antibodies (Jackson cat. No 315-035-045) was added to the wells and incubated for 1 hour at 20° C. Unbound secondary antibody was discarded by washing the wells in washing buffer. Chemiluminescence substrate (Roche Diagnostic's cat. No. 11582950001) was added to the well (100 μl/well), and the plates were incubated for 3 minutes at room temperature before reading the plates. Finally, an ELISA reader (VersaMAX; Molecular Devices, Wokingham Berkshire, UK) was used to quantify the relative light units (RLU) emitted from the plates […]. A standard curve was plotted using a 4-parametric mathematical fit model. […]

[6] = target: T5, human neutrophil elastase; assay: as above
Description: as §3

Binder	IC50 (CPa9-HNE antibody)	binding result [1]	binding result [2]	binding result [3]	binding result [4]	binding result [5]	binding result [6]
B1	0.0783 µg/mL	–	–	–	–	–	–
B2	–	no binding	no binding	binds	no binding	no binding	no binding
